Results taken from paper PMC7913777, “Allosteric effects of SSB C-terminal tail on assembly of E. coli RecOR proteins” (Nucleic Acids Research, 2021).
“And” between values parts separate entries of the source, which are not always exact repeats. Equal values may be shown once.

Legend:
[1] = target: Escherichia coli RecR protein (E. coli) (UniProt P0A7H6); assay: AUC; sedimentation equilibrium of RecR alone, buffer BTP, 37°C; dimers to tetramer
[2] = target: Escherichia coli RecR protein (E. coli) (UniProt P0A7H6); assay: AUC; sedimentation velocity of RecR alone, eight concentrations 2-20 μM (monomer), buffer BTP (pH 8.0), 25°C, 233 nm
[3] = target: Escherichia coli RecR protein (E. coli) (UniProt P0A7H6); assay: AUC; sedimentation equilibrium of RecR alone, 4, 8 and 12 μM (monomer), buffer BTP pH 8.0, 50 mM NaCl, 25°C; dimers to tetramer, Lobs = [R4]/[R2]^2; at 8 μM also a two-species model with the second mass floated
[4] = target: Escherichia coli RecR protein (E. coli) (UniProt P0A7H6); assay: AUC; sedimentation equilibrium of RecR alone, buffer BTP pH 8.0 with 200 mM NaCl, 25°C; dimers to tetramer
[5] = target: Escherichia coli RecR protein (E. coli) (UniProt P0A7H6); assay: AUC; sedimentation equilibrium of RecR alone, buffer BTP pH 8.0, 50 mM NaCl + 10 mM MgCl2, 25°C; dimers to tetramer
[6] = target: Escherichia coli RecR protein (E. coli) (UniProt P0A7H6); assay: AUC; sedimentation equilibrium of RecR alone, 4, 8 and 12 μM (monomer), buffer BTP pH 8.5, 50 mM NaCl, 25°C; dimers to tetramer, Lobs = [R4]/[R2]^2
[7] = target: Escherichia coli RecR protein (E. coli) (UniProt P0A7H6); assay: AUC; sedimentation equilibrium of RecR alone, 4, 8 and 12 μM (monomer), buffer BTP pH 7.5, 50 mM NaCl, 25°C; dimers to tetramer, Lobs = [R4]/[R2]^2
[8] = target: Escherichia coli RecR protein (E. coli) (UniProt P0A7H6); assay: AUC; sedimentation equilibrium of RecR alone, 4, 8 and 12 μM (monomer), buffer BTP pH 9.0, 50 mM NaCl, 25°C; dimers to tetramer, Lobs = [R4]/[R2]^2
[9] = target: Escherichia coli RecR protein (E. coli) (UniProt P0A7H6); assay: AUC; sedimentation equilibrium of RecR alone, 4, 8 and 12 μM (monomer), buffer BTP pH 7.0, 50 mM NaCl, 25°C; dimers to tetramer, Lobs = [R4]/[R2]^2
[10] = target: Escherichia coli RecR protein (E. coli) (UniProt P0A7H6); assay: AUC; sedimentation equilibrium of RecR alone, 4, 8 and 12 μM (monomer), buffer BTP pH 6.4, 50 mM NaCl, 25°C; dimers to tetramer, Lobs = [R4]/[R2]^2
E. coli RecR tetramer [11] = target: T1, E. coli RecR tetramer (E. coli, UniProt P0A7H6 1-201); assay: AUC; sedimentation velocity, RecO (1.5 μM) titrated with RecR (1.5-9 μM monomer; 1:1 to 1:6), no P15, buffer BTP (pH 8.0), 25°C; K3 and K4 from SedAnal simulations (Scheme 1) that best describe the c(s) profiles
T1 construct: RecR, E. coli; tetramer 87.8 kDa; Same preparation as m2; the tetrameric state, which is the one found in complexes with RecO; also called RecR4; R4; source: E. coli BL21 Rosetta 2(DE3)pLysS, purified (Ni-NTA)
T1 sequence (looked up): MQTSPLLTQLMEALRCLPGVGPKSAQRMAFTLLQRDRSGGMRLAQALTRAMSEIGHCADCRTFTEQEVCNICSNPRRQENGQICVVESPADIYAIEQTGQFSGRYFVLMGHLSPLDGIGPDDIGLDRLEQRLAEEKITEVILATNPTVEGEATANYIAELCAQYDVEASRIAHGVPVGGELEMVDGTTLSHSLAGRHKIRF

E. coli RecR tetramer [12] = target: T1, E. coli RecR tetramer; assay: AUC; sedimentation equilibrium, RecO 1.5 μM + RecR 6 μM monomer (1:4), no P15, buffer BTP (pH 8), 25°C, 18 000, 23 000, 28 000 rpm; two-species model, free RecR dimer fixed
E. coli RecR tetramer [13] = target: T1, E. coli RecR tetramer; assay: AUC; sedimentation equilibrium, RecO 1.5 μM + RecR 1.5 μM monomer (1:1), no P15, buffer BTP (pH 8), 25°C, 18 000, 23 000, 28 000 rpm; two-species model, free RecO fixed
E. coli RecR tetramer [14] = target: T1, E. coli RecR tetramer; assay: AUC; sedimentation equilibrium, RecO 1.5 μM + RecR 6 μM (1:4) with P15 (9 μM), buffer BTP (pH 8), 25°C, 19 000, 24 000, 29 000 rpm; one-species model; conditions: both partners purified
E. coli RecR tetramer [15] = target: T1, E. coli RecR tetramer; assay: AUC; sedimentation equilibrium, RecR 2 μM monomer, RecO 6 μM (3:1), P15 36 μM, buffer BTP (pH 8.0), 25°C, 19 000, 24 000, 29 000 rpm; two-species model, RecO-P15 fixed at 29.1 kDa; conditions: both partners purified
E. coli RecR tetramer [16] = target: T1, E. coli RecR tetramer; assay: AUC; sedimentation equilibrium, RecO 1.5 μM + RecR 1.5 μM (1:1) with P15 (9 μM), buffer BTP (pH 8), 25°C, 19 000, 24 000, 29 000 rpm; two-species model; conditions: both partners purified
[17] = target: T2, Escherichia coli RecO protein (E. coli, UniProt P0A7H3 1-242); assay: ITC; pH 8, 25°C
T2 chain: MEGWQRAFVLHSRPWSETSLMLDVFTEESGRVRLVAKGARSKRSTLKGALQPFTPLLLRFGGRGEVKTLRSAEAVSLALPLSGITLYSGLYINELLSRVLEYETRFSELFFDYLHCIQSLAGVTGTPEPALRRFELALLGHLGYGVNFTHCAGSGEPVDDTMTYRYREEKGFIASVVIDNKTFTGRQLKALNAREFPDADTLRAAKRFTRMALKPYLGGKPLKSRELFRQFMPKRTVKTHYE

[18] = target: T3, RecOR complex (pre-mixed RecO and RecR, 1:4 molar ratio) (E. coli, UniProt P0A7H3 1-242; P0A7H6 1-201); assay: ITC; P15 (50 μM) titrated into a pre-mixed solution of RecO (2 μM) and RecR (8 μM monomer), buffer BTP, pH 8.0, 25°C; conditions: both partners purified
T3 construct: RecO, E. coli; as m1; RecR, E. coli; as m2; also called pre-mixed solution of RecO (2 μM) and RecR (8 μM monomer); source: purified RecO and purified RecR (both from E. coli), pre-mixed; copies: + 4
T3 sequence (looked up) 1: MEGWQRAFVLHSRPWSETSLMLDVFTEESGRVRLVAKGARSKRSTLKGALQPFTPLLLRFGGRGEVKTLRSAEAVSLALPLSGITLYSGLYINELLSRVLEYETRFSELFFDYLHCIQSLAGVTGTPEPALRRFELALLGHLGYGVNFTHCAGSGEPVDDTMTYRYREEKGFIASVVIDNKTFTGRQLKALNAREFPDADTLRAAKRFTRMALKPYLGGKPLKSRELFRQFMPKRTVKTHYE
T3 sequence (looked up) 2: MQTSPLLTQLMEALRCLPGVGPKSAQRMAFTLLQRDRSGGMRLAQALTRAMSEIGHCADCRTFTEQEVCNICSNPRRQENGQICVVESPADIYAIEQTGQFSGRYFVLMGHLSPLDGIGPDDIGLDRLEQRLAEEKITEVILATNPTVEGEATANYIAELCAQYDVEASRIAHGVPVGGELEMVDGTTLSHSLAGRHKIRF

## Escherichia coli RecR protein (from UniProt P0A7H6 1-201) (natural protein)
[1]
  Ka: 149000 M⁻¹
[2]
  stoichiometry N: 2 and 4
[3]
  Ka: 216000 M⁻¹
  stoichiometry N: 4
[4]
  Ka: 34900 M⁻¹
[5]
  Ka: 72000 M⁻¹
[6]
  Ka: 4320 M⁻¹
[7]
  Ka: 568000 M⁻¹
[8]
  Ka: < 500 M⁻¹
[9]
  Ka: 1.65e+06 M⁻¹
[10]
  Ka: 267000 M⁻¹

## Escherichia coli RecO protein (from UniProt P0A7H3 1-242) (natural protein)
E. coli RecR tetramer [11]
  K3 (association constant, first RecO to RecR4): 500000 M⁻¹
  K4 (association constant, second RecO to RecR4O): 4e+08 M⁻¹
E. coli RecR tetramer [12]
  stoichiometry N (RecO per RecR tetramer): 2
E. coli RecR tetramer [13]
  stoichiometry N (RecO per RecR tetramer): 2

B1: RecO–P15 complex (complex, E. coli)
chain: MEGWQRAFVLHSRPWSETSLMLDVFTEESGRVRLVAKGARSKRSTLKGALQPFTPLLLRFGGRGEVKTLRSAEAVSLALPLSGITLYSGLYINELLSRVLEYETRFSELFFDYLHCIQSLAGVTGTPEPALRRFELALLGHLGYGVNFTHCAGSGEPVDDTMTYRYREEKGFIASVVIDNKTFTGRQLKALNAREFPDADTLRAAKRFTRMALKPYLGGKPLKSRELFRQFMPKRTVKTHYE
peptide: PSNEPPMDFDDDIPF
notes: RecO, E. coli; as m1; the 15 C-terminal amino acids of E. coli SSB; as m3; 29.1 kDa; also called RecO in the presence of a 6-fold molar excess of P15; source: RecO from E. coli BL21(DE3)pLysS, purified; P15 bought: WatsonBio; mixed with a six-fold molar excess of P15 over RecO; copies: 1 + 1
E. coli RecR tetramer [14]
  stoichiometry N: 1 RecO per RecR tetramer
E. coli RecR tetramer [15]
  stoichiometry N: 2 RecO-P15 per RecR tetramer
E. coli RecR tetramer [16]
  stoichiometry N: 2 RecO per RecR tetramer

B2: P15 peptide (the 15 C-terminal amino acids of E. coli SSB) (peptide)
peptide: PSNEPPMDFDDDIPF
notes: the 15 C-terminal amino acids of E. coli SSB; also called SSB-Ct peptide; SSB C-terminal acidic tip peptide; source: bought: WatsonBio
[17]
  Ka: 1.2e+07 M⁻¹
[18]
  dH: < 1 kcal/mol
